For assay [1], the target named is T1, human B-cell maturation antigen (BCMA) on cells (human, UniProt Q02223 1-184).
T1 construct: Recombinant on HEK293 or K562 cells, or endogenous on cell lines (H929, RPMI 8226, OPM2, MM1S, Daudi); also called hBCMA; huBCMA
T1 chain: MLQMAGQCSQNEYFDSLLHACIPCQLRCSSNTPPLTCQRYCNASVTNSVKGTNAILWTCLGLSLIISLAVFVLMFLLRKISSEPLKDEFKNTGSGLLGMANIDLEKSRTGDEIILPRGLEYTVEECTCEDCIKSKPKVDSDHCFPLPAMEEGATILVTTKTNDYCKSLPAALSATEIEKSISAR
As to the kind of experiment: flow cytometry on BCMA-expressing HEK293 cells vs control cells, crude lysate or bacterial supernatant; clone listed in Table E2. As for the experimental part:
Specific binding of resulting scFv clones to BCMA-expressing HEK293 cells, as compared to control cells not expressing BCMA, was assessed by flow cytometry either with in vitro translated crude cell lysate or with bacterially-produced supernatant.
In general terms: A flow cytometer gives signals particle by particle.

Assay [2] concerns the target T2, human BCMA peptide 30SNTPPLTCQR39 (human).
T2 construct: Could be recognized in a linear form
T2 peptide: SNTPPLTCQR
As to the kind of experiment: CLIPS peptide array, ELISA. The procedure: (§1) Mapping was carried out using anti-BCMA scFv clones, such as those fused with mouse Fc (scFv-mFc).
(§2) Linear and conformational peptide libraries of amino acid residues 1-54 of human BCMA (set forth as amino acid residues 1-54 of SEQ ID NO:367) were generated based on a combinatorial matrix design. Linear peptides and structural mimetics including single loop, a-helix, 3-turn, combinatorial and linear disulfide bridge mimics, and discontinuous epitope mimics were used, along with positive and negative control peptides, on an amino-functionalized solid support.
(§3) Affinities for binding to the peptides in the epitope library were determined using ELISA. The peptide arrays were incubated with a solution containing the scFv overnight at 4° C. Affinity information was used in iterative screens to define the sequence and conformation of epitopes. Heat maps of affinity information for two or more loops were generated.

The target of assay [3] is T3, recombinant human BCMA-hFc (human, UniProt Q02223 1-54, biotinylated in the kinetic exclusion assay of paragraph 546).
T3 construct: also called rhBCMA hFc; recombinant human BCMA fusion protein
T3 sequence: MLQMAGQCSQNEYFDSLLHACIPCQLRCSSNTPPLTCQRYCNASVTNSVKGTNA
As to the kind of experiment: Biacore-based assay (SPR). A general note: Surface plasmon resonance follows binding to a sensor surface in real time, without labels.

For assay [4], the target named is T1, human B-cell maturation antigen (BCMA) …. Description: membrane proteome array on transfected HEK293 cells (Retrogenix).
The target in assay [5] is T4, BCMA-Fc (soluble human BCMA fused at its C-terminus to an Fc region of IgG) (human, UniProt Q02223 1-54).
T4 construct: also called hBCMA-Fc; hBMCA-Fc
T4 sequence: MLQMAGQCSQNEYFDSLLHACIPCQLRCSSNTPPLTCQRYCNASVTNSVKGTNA
As to the kind of experiment: flow cytometry, T cells transduced with Non-SSE construct, CD8 gate, recombinant BCMA-Fc (rBCMA) staining against surrogate marker. As for the experimental part: (§4) Lentiviral constructs containing anti-BCMA CAR-encoding polynucleotides with starting and optimized sequences, respectively, as described in Example 3, were transduced into T cells and transduced cells were analyzed for transduction (based on expression of a surrogate marker) and for CAR expression based on binding to recombinant BCMA-Fc fusion protein by flow cytometry.

The target of assay [6] is T4, BCMA-Fc (soluble human BCMA fused at …). Description: flow cytometry, T cells transduced with Non-SSE construct, CD4 gate, recombinant BCMA-Fc (rBCMA) staining against surrogate marker. As for the experimental part: as §4
Assay [7] addresses T3, recombinant human BCMA-hFc. As to the kind of experiment: kinetics exclusion assay, CAR expressed on a Jurkat T cell line, rhBCMA hFc in solution; CAR on Jurkat cells, kinetics exclusion assay (not the scFv-Fc by Biacore). The procedure: A CAR with a BCMA-55-derived scFv binding domain, a modified IgG-derived CH2-CH3-hinge spacer, a CD28 transmembrane domain, and 41BB and CD3zeta endodomain, was expressed in a Jurkat T cell line. Kinetics of binding by the CAR to recombinant human BCMA-hFc (rhBCMA hFc) was assessed using a kinetics exclusion assay. Affinity of binding of an Fc fusion protein containing the scFv portion of the CAR (scFv-Fc) to recombinant human BCMA fusion protein was also assessed using a Biacore-based assay.

Assay [8] concerns the target T3, recombinant human BCMA-hFc. As to the kind of experiment: KinExA kinetic exclusion assay, CAR-expressing Jurkat cells titrated into 20 nM or 1 nM biotinylated rhBCMA hFc. Background: Kinetic exclusion samples the free partner from a solution-phase mixture.
The target of assay [9] is T4, BCMA-Fc (soluble human BCMA fused at …). As to the kind of experiment: flow cytometry, T cells transduced with O/SSE construct, CD8 gate, recombinant BCMA-Fc (rBCMA) staining against surrogate marker. As for the experimental part: as §4
For assay [10] the target is unchanged. Description: flow cytometry, T cells transduced with O/SSE construct, CD4 gate, recombinant BCMA-Fc (rBCMA) staining against surrogate marker. As for the experimental part: as §4
In assay [11] the target is T5, human BCMA amino acid residues 1-54 (linear and conformational peptide libraries) (human, UniProt Q02223 1-54).
T5 construct: Presented as CLIPS peptide arrays (linear peptides and structural mimetics) on a solid support
T5 sequence: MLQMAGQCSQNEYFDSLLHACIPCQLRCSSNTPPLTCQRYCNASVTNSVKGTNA
Description: CLIPS peptide array, ELISA. The procedure:
as §1, §2, §3

B1: BCMA-25 scFv (scFv)
scFv: EVQLVQSGGGLVQPGRSLRLSCTASGFTFGDYAMSWFRQAPGKGLEWVGFIRSKAYGGTTEYAASVKGRFTISRDDSKSIAYLQMNSLKTEDTAVYYCAAWSAPTDYWGQGTLVTVSSGGGGSGGGGSGGGGSDIQMTQSPAFLSASVGDRVTVTCRASQGISNYLAWYQQKPGNAPRLLIYSASTLQSGVPSRFRGTGYGTEFSLTIDSLQPEDFATYYCQQSYTSRQTFGPGTRLDIK
With B1, the binding result in [1] and in [2] was “binds” each time.

B2: BCMA-55 scFv-Fc fusion protein (Fc fusion, not shown: a dimerising Fc or GST)
chain: QSALTQPASVSASPGQSIAISCTGTSSDVGWYQQHPGKAPKLMIYEDSKRPSGVSNRFSGSKSGNTASLTISGLQAEDEADYYCSSNTRSSTLVFGGGTKLTVLGSRGGGGSGGGGSGGGGSLEMAEVQLVQSGAEMKKPGASLKLSCKASGYTFIDYYVYWMRQAPGQGLESMGWINPNSGGTNYAQKFQGRVTMTRDTSISTAYMELSRLRSDDTAMYYCARSQRDGYMDYWGQGTLVTVSS
notes: also called BCMA-55-Fc
Take B2: the Kd in assay [3] is approximately 10 nM. Also, in [4], the binding result is on record as “binds”.

B3: BCMA-55-LS CAR (other)
chain: QSALTQPASVSASPGQSIAISCTGTSSDVGWYQQHPGKAPKLMIYEDSKRPSGVSNRFSGSKSGNTASLTISGLQAEDEADYYCSSNTRSSTLVFGGGTKLTVLGSRGGGGSGGGGSGGGGSLEMAEVQLVQSGAEMKKPGASLKLSCKASGYTFIDYYVYWMRQAPGQGLESMGWINPNSGGTNYAQKFQGRVTMTRDTSISTAYMELSRLRSDDTAMYYCARSQRDGYMDYWGQGTLVTVSSESKYGPPCPPCPAPPVAGPSVFLFPPKPKDTLMISRTPEVTCVVVDVSQEDPEVQFNWYVDGVEVHNAKTKPREEQFQSTYRVVSVLTVLHQDWLNGKEYKCKVSNKGLPSSIEKTISKAKGQPREPQVYTLPPSQEEMTKNQVSLTCLVKGFYPSDIAVEWESNGQPENNYKTTPPVLDSDGSFFLYSRLTVDKSRWQEGNVFSCSVMHEALHNHYTQKSLSLSLGKMFWVLVVVGGVLACYSLLVTVAFIIFWVKRGRKKLLYIFKQPFMRPVQTTQEEDGCSCRFPEEEEGGCELRVKFSRSADAPAYQQGQNQLYNELNLGRREEYDVLDKRRGRDPEMGGKPRRKNPQEGLYNELQKDKMAEAYSEIGMKGERRRGKGHDGLYQGLSTATKDTYDALHMQALPPR
notes: Chimeric antigen receptor on T cells or Jurkat cells; also called BCMA-55-LS-O/SSE CAR; BCMA-55-LS CAR O/SSE
As to B3, the “% of cells in Q1 (rBCMA+ marker-)” value in assay [5] was found to be 7.95%; in assay [6], 8.66%; in assay [9], 2.47%; in assay [10] it was 1.9%. Moreover, the “% of cells in Q3 (rBCMA- marker+)” value was 6.75% in assay [5], 6.35% in [6], 6.39% in assay [9] and 4.89% in [10]. Besides, the “% of cells in Q4 (rBCMA- marker-)” value worked out at 48.8% in [5], 40.9% in assay [6], 47.8% in assay [9] and 43% in [10]. Also, the figures for the Kd in [7] and in [8] were approximately 1 nM and approximately 1.46 nM, respectively.

B4: BCMA-23 scFv (scFv)
scFv: EVQLVESGGGLVKPGGSLRLSCAASGFTFSDYYMSWIRQAPGKGLEWVSYISSSGSTIYYADSVKGRFTISRDNAKNSLYLQMNSLRAEDTAVYYCAKVDGDYTEDYWGQGTLVTVSSGGGGSGGGGSGGGGSQSALTQPASVSGSPGQSITISCTGSSSDVGKYNLVSWYQQPPGKAPKLIIYDVNKRPSGVSNRFSGSKSGNTATLTISGLQGDDEADYYCSSYGGSRSYVFGTGTKVTVL
B4: the binding result in assay [2] is listed as “binds”.

B5: BCMA-1 scFv (scFv)
scFv: QVQLVQSGGGLVQPGRSLRLSCTASGFTFGDYAMSWFRQAPGKGLEWVGFIRSKAYGGTTEYAASVKGRFTISRDDSKSIAYLQMNSLKTEDTAVYYCAAWSAPTDYWGQGTLVTVSSGGGGSGGGGSGGGGSDIVMTQSPDSLSVSPGERATISCKSSQSVLSTSNNKNYLAWYQQKPGQPPRLLLYWASTREAGVPDRFSGSGSGTDFTLTISSLQAEDVAVYYCQQYFSSPYTFGHGTKLEIK
Take B5: the binding result in assay [1] and in assay [2] was “binds” throughout.

B6: BCMA-5 scFv (scFv)
scFv: QVQLVQSGGGLVQPGRSLRLSCTASGFTFGDYAMSWFRQAPGKGLEWVGFIRSKAYGGTTEYAASVKGRFTISRDDSKSIAYLQMNSLKTEDTAVYYCAAWSAPTDYWGQGTLVTVSSGGGGSGGGGSGGGGSDIVMTQSPDSLAVSLGERATINCKSSQSVLYSSNNKNYLAWYQQKPGQPPKLLIYWASTRESGVPDRFSGSGSGTDFTLTISSLQAEDVAVYYCQQYYSTPWTFGQGTKVDIK
As for B6, the binding result in assay [1] and in [2] was “binds” in each case.

B7: BCMA-26 scFv (scFv)
scFv: EVQLVESGGGLVKPGGSLRLSCAASGFTFSDYYMSWIRQAPGKGLEWVSYISSSGSTIYYADSVKGRFTISRDNAKNSLYLQMNSLRAEDTAVYYCAKVDGPPSFDIWGQGTMVTVSSGGGGSGGGGSGGGGSSYVLTQPPSVSVAPGQTARITCGANNIGSKSVHWYQQKPGQAPMLVVYDDDDRPSGIPERFSGSNSGNTATLTISGVEAGDEADYFCHLWDRSRDHYVFGTGTKLTVL
Regarding B7, the binding result in [1] and in assay [11] was “binds” throughout.

B8: BCMA-9 scFv (scFv)
scFv: EVQLVQSGGGLVKPGGSLRLSCAASGFTFSDYYMSWIRQAPGKGLEWVSYISSSGSTIYYADSVKGRFTISRDNAKNSLYLQMNSLRAEDTAVYYCARVDGDYVDDYWGQGTLVTVSSGGGGSGGGGSGGGGSSYELTQPPSVSVAPGQTARVTCGANNIGSKSVHWYQQKPGQAPMLVVYDDDDRPSGIPERFSGSNSGNTATLTISGVEAGDEADYFCHVWDRSRDHYVFGTGTKLTVL
For B8, the binding result in [1] and in [11] was “binds” in each case.

B9: BCMA-52-scFv-mFc (Fc fusion, not shown: a dimerising Fc or GST)
chain: SYELTQPPSASGTPGQRVTMSCSGTSSNIGSHSVNWYQQLPGTAPKLLIYTNNQRPSGVPDRFSGSKSGTSASLAISGLQSEDEADYYCAAWDGSLNGLVFGGGTKLTVLGSRGGGGSGGGGSGGGGSLEMAEVQLVQSGAEVKKPGESLKISCKGSGYSFTSYWIGWVRQMPGKGLEWMGIIYPGDSDTRYSPSFQGHVTISADKSISTAYLQWSSLKASDTAMYYCARYSGSFDNWGQGTLVTVSS
notes: also called BCMA-52 scFv fused with mouse Fc
In the case of B9, the binding result in [11] was “binds”.

As usually defined, the Kd is the constant that tells how readily two partners part at equilibrium.

Values taken from patent publication US20260109774A1 (JUNO THERAPEUTICS, published 2026).
